Laboratory results as given in article PMC10952621.
pKd: −log10 of the molar value.

Legend:
[1] = target: LQTS-associated calmodulin variant D95V (human); assay: ITC; Kv7.1-HB peptide titrated into CaM (~50 uM) in the cell; 50 mM Na-HEPES, 100 mM KCl, 2 mM MgCl2, pH 7.5, 5 mM CaCl2; 25 °C; two-site binding model
[2] = target: LQTS-associated calmodulin variant D131H (human); assay: as above
[3] = target: LQTS-associated calmodulin variant N97I (human); assay: as above
[4] = target: LQTS-associated calmodulin variant D95V (human); assay: ITC; peptide titrated into CaM (~50 uM) in the cell; 50 mM Na-HEPES, 100 mM KCl, 2 mM MgCl2, pH 7.5, 1 mM EGTA (Ca2+-free); 25 °C; one-site binding model
[5] = target: LQTS-associated calmodulin variant D131H (human); assay: as above
[6] = target: LQTS-associated calmodulin variant N97I (human); assay: as above

A KD, first binding event [1] of 6.9 nM, a KD, second binding event [1] of 725 nM and a N, first binding event [1] of 0.8 sites were found for “Kv7.1-HB(507-536) peptide, helix B of the KCNQ1 C-terminus” in this work. The N, second binding event [1] was 0.8 sites, the dH, first binding event [1] was -13.2 kcal/mol and the dH, second binding event [1] was -14.9 kcal/mol. It also gave a KD, first binding event [2] of 9.7 nM, a KD, second binding event [2] of 908 nM and a N, first binding event [2] of 0.8 sites. For the same substance, the N, second binding event [2] was 1.4 sites, the dH, first binding event [2] was -14.3 kcal/mol and the dH, second binding event [2] was -15.5 kcal/mol. For the same substance, the KD, first binding event [3] was 4.7 nM, the KD, second binding event [3] was 775 nM and the N, first binding event [3] was 1.1 sites. It also gave a N, second binding event [3] of 1.1 sites, a dH, first binding event [3] of -12.9 kcal/mol and a dH, second binding event [3] of -11.5 kcal/mol. For the same substance, the pKd [4] was 5.41, the dH [4] was 5.8 kcal/mol and the stoichiometry N [4] was 0.9 sites. The dH [5] was 3.3 kcal/mol, the stoichiometry N [5] was 0.9 sites and the pKd [6] was 5.62. For the same substance, the dH [6] was 4.7 kcal/mol and the stoichiometry N [6] was 0.8 sites.
